Experiment: yeast display, Sf9 membrane polyspecificity reagent, FACS + sequencing; frameworks hold sequencing errors
Procedure, shortened: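 After 36–48 hours of galactose induction, yeast (Saccharomyces cerevisiae BJ5465) displaying a synthetic nanobody library were stained at 4 °C for 1 hour with 10% biotinylated, detergent-solubilized Sf9 membrane reagent. Streptavidin microbeads enriched the stained cells before FACS sorting into low and high (top ~1%) gates on anti-HA and streptavidin fluorescence. Each clone's polyreactivity label reflects its gate of origin.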

Sequence	polyreactivity (PSR sort gate)
QVQLVESGGGLVQAGGSLRLSCAASVRISVFNAMGWYRKPPGKESELVAGISNGGSTNYADSVKGRFTISRDNAKNTVYLQMNSLKPEDTAVYYCANDEPKVCRAFDYWGQGTQVTVSS	low polyreactivity
QVQLVESGGGLVQAGGSLRLSCAASGRIFYPYAMGWYRPAPGKERELVAAITVRGGRTYYADSVKWRFTISRDNAKNTVYLQMNSLKPEDTAVYYCNAVIGWYIGSRTYPHGPLQYDYWGQGTQVTLSS	high polyreactivity
QVQLVESGGGLVQAGGSLRLSCAPCGIIFTDYAMGWYRQAPGKERELVAAISSGGGSTYYADSVKGRFTISRDNAKNTVYLQMNSLKPEDTAVYYCNARSPYYSYLLHAYRVFDYWGQGTQVNVSS	high polyreactivity
QVQLVESGGGLVQAGGSLRLSCAASGRTFPSYVMGWYRQAPGKERELVAAINNGVSTNYADSVKGRYTISRDNAKNTVYLQMNSLNPEDTADYYCAAEVVAQMNYCGQGTQVTVSS	low polyreactivity
QVQLVESGGGLVQAGGSLRLSCAASGRTLGGYAMGWYRQAPGKERELVASITARGGSTYYADSVKGRFTISRDNAKNTVYLQMNSLKPEDTAVYYCATYFARGYNSWGQGTQVTVSS	high polyreactivity
QVQLVESGGGLVQAGGSLRLSCAASGSIFGTYAMGWYIQAPGKEREFVAAISWSDGSTYYADSVKGRFTISRDNAKNTVYLQMNSLKPEDTAVYYCAAGPSQYTEFDYWGQGTQVTVSS	low polyreactivity
QVQLVESGGGLVQAGGSLRLSCAASGSTFYANAMGWYRQAPGKERELVAAISSRGGSTSYADSVKGRFTISRDNAKNTVYLQMNSLKPEDTAVYYCNKVTRYYYRGFDYWGQGTQVTVSS	high polyreactivity
QVQLVESGGGLVQAGGILRLSCAASGRTVVSYAMGWYRQQPGKGRELVAVITGGTGNTYYADSVKGRFTISRDNEKNTVYLQMNSLKREDTAVYYCNARGCYYKFRYPLYYWGQGTQVTVSS	high polyreactivity
QVQLVESGGGLVQAGGSLRLSCAASGIIFEPNAMGWYRQAPGKERELVAAIDSGGITYYADSVKGRFTISRDNAKNTVYLEMNSLKPEDTAVYYCAKRAYTRQYWYGYGYWGQGTQVTVSS	high polyreactivity
QVQLVESGGGLVQAGGSLRLSCAASGRIFVYYAMGWYRQAPGKEREFVAAITDSGGGTYYADSVKGRFTISRDNAKNTVYLQMNSLKPEDTAVYYCAKRFGQYRYPYDYWGQGTQVTVSS	high polyreactivity
QVQLVESGGGLVQAGGSLRLSCAASGSIFNYYDMGWYRQAPGKERELVAAIDLTGGTTYYADSVKGRFTISRDNAKNTVYLQMNSLKPEDTAVYYCAAQYIRSSWWGYDYWGQGTQVSVSS	low polyreactivity
QVQLVESGGGLVQAGGSLRLSCDASGNTSSYYTMGWYRQAPGKERELGARISNRGTNTYYAESVKGRVTISRDNAKNTVYLQMNSLKPEDTAVYYCAALYWFYVYPFTEYDYWGQGTQVTVSS	low polyreactivity
QVQLVESGGGLVQAGGSLRLSCAASGRILYLNDMGWYRQAPGKERELGAAITRRAGSTSYADSVKGRFTISRDNAKNTFYLQMNSLKPEDTAVYYCAKATSRRGFYYWGQGTQVTVSS	high polyreactivity
QVQLVESGGGLVQAGGSLRLSCAASGRIFSRNAMGWYRQAPGKERELVAAISGSGTSTYYAVSVKGRFTISRDNAKNTVYLQMNSLKPEDTAVSYCAADYPAVISIRRYDYWGQGTQVTVSS	low polyreactivity
QVQLVESGGGLVQAGVSLRLSCAASGSTFYYYAMGWYRQAPGKERELVATISSGSSTNYADSVKGRFTISRDNAKNTVYLQMNSLKPEDTAVYYCAADRWYITLSIDATISYDYWGQGTQVTVSS	low polyreactivity
QVQLVESGGGLVQAGGSLRLSCAASGRIFRENAMGWYRQAPGKERELVAAISSGGSTYYADSVKGRFTISRDNAKNTVYLQMNSLKPEDTAVYYCAADLSWSRVVFGDYDYWGQGTQVTVSS	low polyreactivity

Sequence	polyreactivity (PSR sort gate)
QVQLVESGGGLVQAGGSLRLSCAASGITIVNYVMGWYRQAPGKERELVAAISIGGGTYYADSVKGRFTISRDNAKNTVYLQINSLKPEDTAVYYCNASYGGLSFYIGVYVTGYDYWGQGTQVTVSS	low polyreactivity
QVQLVESGGGLVQAGGSLRLICAASGRIFTAYVMGWYRQAPGKERQLVAAITEGGGNTYYADSVKGRFTISRDNAKNTVYLQMNSLKPEDTAVYYCAARYLVNGRKRLYYWGQGTQVTVSS	high polyreactivity
QVQLVESGGGLVQAGGSLRLSCAASGNIFSYYAMGWYRQAPGKERELVAAIYTGGSTYYADSVKGRFTISRDNAKNTVYLQMNSLKPEDTEVYYCAASGLNLRQDYDYWGQGTQVTVSS	low polyreactivity
QDQLVESGGGLVQAGGSLRLSCAASGRILPYYTMGWYRQAPGKERELVAAISKRGTSTYYADSVKGRFTISRDNAKNTVYLQMNSLKPEDTAVYYCAKRGPGVDYDYWGQGTQVTVSS	high polyreactivity
QVQLVESGGGLVQAGGSLRLSCAASGIIFGNYAMGWYRQEPGKERELVATITWRGGSTYYADSVKGRFTISRDNAKNTVYLQMISLKPEDTAVYYCARPYASYRSFYYYGYWGQGTQVTVSS	high polyreactivity
QVQLVESGAGLVQAGGSLRLSCAASGITFSYYSMGWYRQAPGKERELVAVISGSGSTTSYADSVKGRFTISRDNAKNTVYLQMNSLKPEDTAVYYCAADGGWRPEYYYWGQGTQVTVSS	low polyreactivity
QVQVVESGGGLVQAGGSLRLSCAASGRTFGPYAMGWFRQAPGKEREFVAAISYSGGSTYYADSVKWRFTISRDNAKNTVYLQMNSLKPEDTAVYYCAAEGDYYDFISPPLDYWGQGTQVTVAS	low polyreactivity
QVQLVESGGGLVQAGGSLRLSCAASGSIFLTYAMGWYRQAPGKESELVAAISSGDSTNYTDSVKGRFTISRDNAKNTVYLQMNSLKPEDTAVYYCAADLTYTMDHWGQGTQVTVSS	low polyreactivity
QVQLVESGGGLVQAGGTLRLSCAASGRIFFTNAMRRYRQASGKESELVAAISKSGARTYYADSVKGRFTISRDNAKNTVYLQMNSLKPEDTAVYYCAGDVSVAGYYYWGEGTQVTVSS	high polyreactivity
QVQLVESGGGLVQAGGSLRLSCAASGFILDNYAMGWYRQAPGKERELVAAISGSGGSTYYADSVKGRFTISRDNAKNTVYLQMNSLKPEDTAVYYCAAYSIHYGYDAYDYWGQGTQVTVSS	high polyreactivity
QVQLVESGGGLVQAGGSLRLSCAASGSIFTRYAMGWYRQAPGKERELVAAISWIGTRTYYADSVKGRFTISRDNAKNTVYLQMNSLKPEDTAVYYCNAVSKVERYSYPHGRPFEYWGQGTQVTVSS	high polyreactivity
QVQLVQSFGGLVQAGGSLRLSCAASGRIFWPYAMGWYRQPPGKERELVAAITGSGSRTYYADSVKGRFTISRDYAKNTVYLHMNSLNREDTAVYYCAATSSTDYDYWGQGTQVTVSS	low polyreactivity
QVQLVESWAGLVQAGGSLRLSCAASGRTFAYNAMGGYRQAPGSERELVAAITWSGDSTYYADSVKGRFTISRDNAKKTVYLQMNSQKPEDTAVNYCAAGLVFHYYAPKSYYLGYDYWGQGTQVTVSS	low polyreactivity
QVQLVESGGGLVQAGGSLRLSCAASGITFRYYAMGWSRQAPWKERELVAVISSTGITNYADSVKGRFTISRDNAKNTVYLQMNSLKPEDTAVYYCAAGLWYSYDYWGQGTQVTVSS	high polyreactivity
QVQLVESGGGLVQAGGSLRVSCAASGSTIITNAMGWYRQATGKERELVAAITYSTGATYYADSVKGRFTISRDNAKNTVYLQMNSQKPEDTACYYCAALLYFFMIDYWGQGTQETVSS	low polyreactivity
QVQLVESGGGLVQAGGSLRLSCAASGSTFDRNAMGWYRQAPGKERELVAAISRRGGRTYYADSVKGRFTISRDNAKNTVYLQMNSLKPEDTAVYYCAAGKITFPMDYWGQGTQVTVSS	high polyreactivity
